The record followed here is paper PMC10350922, “Allosteric Inhibitors of Macrophage Migration Inhibitory Factor (MIF) Interfere with Apoptosis-Inducing Factor (AIF) Co-Localization to Prevent Parthanatos”.

In the data set the target is MIF (ZP307-labeled) (human, UniProt P14174 2-115). The experiment in a line: competition; competes with PA20-Q1, dose-dependent; 5 mM Mg2+; 100 mM Tris, 5 mM MgCl2, 5 mM KCl, pH 8.2; 1 uM labeled MIF, 1 uM PA20-Q1; inhibitor preincubation at rt. Particulars: protein: recombinant; tags: C-terminal His-tagged and untagged both made; chain copies: 3; single strand.

Consider AAAAAAAAAAAAAAAAAAAA (ssDNA) [PA20], for which the binding result is “binds”.
